Results published in IntAct's records for PubMed 17003044.

B1: BAR/IMD domain-containing adapter protein 2 (Homo sapiens), Q9UQB8 (parent)
chain: MSLSRSEEMHRLTENVYKTIMEQFNPSLRNFIAMGKNYEKALAGVTYAAKGYFDALVKMGELASESQGSKELGDVLFQMAEVHRQIQNQLEEMLKSFHNELLTQLEQKVELDSRYLSAALKKYQTEQRSKGDALDKCQAELKKLRKKSQGSKNPQKYSDKELQYIDAISNKQGELENYVSDGYKTALTEERRRFCFLVEKQCAVAKNSAAYHSKGKELLAQKLPLWQQACADPSKIPERAVQLMQQVASNGATLPSALSASKSNLVISDPIPGAKPLPVPPELAPFVGRMSAQESTPIMNGVTGPDGEDYSPWADRKAAQPKSLSPPQSQSKLSDSYSNTLPVRKSVTPKNSYATTENKTLPRSSSMAAGLERNGRMRVKAIFSHAAGDNSTLLSFKEGDLITLLVPEARDGWHYGESEKTKMRGWFPFSYTRVLDSDGSDRLHMSLQQGKSSSTGNLLDKDDLAIPPPDYGAASRAFPAQTASGFKQRPYSVAVPAFSQGLDDYGARSMSRNPFAHVQLKPTVTNDRCDLSAQGPEGREHGDGSARTLAGR

Variants of: B1
Conditions: with rac1_human RAC1, P63000

Variant | effect of a mutation on the interaction
K143E | decreasing interaction strength
K143E;K147E | decreasing interaction strength
K142A;K143A;R145A;K146A;K147A | decreasing interaction strength
Q23E | decreasing interaction strength
R11E;Q23E | decreasing interaction strength
